This note sets out measurements from patent US20240400687A1 (Regeneron, published 2024).

Experiment [1] has as its target T1, mouse PD1 (mPD1) (mouse, UniProt Q02242 25-288).
T1 construct: whole, on cells; also called murine PD1
T1 sequence (looked up): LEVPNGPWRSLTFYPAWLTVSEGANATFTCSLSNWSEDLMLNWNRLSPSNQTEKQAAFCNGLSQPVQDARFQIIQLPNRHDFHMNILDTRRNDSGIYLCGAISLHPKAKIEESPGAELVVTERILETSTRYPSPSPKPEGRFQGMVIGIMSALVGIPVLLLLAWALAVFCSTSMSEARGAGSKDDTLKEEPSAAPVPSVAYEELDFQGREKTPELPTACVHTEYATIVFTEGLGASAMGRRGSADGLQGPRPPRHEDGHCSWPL
The experiment in a line: flow cytometry on Jurkat/mPD1 cells. How it is done:
Cells (HEK 293, MC38 over-expressing mCD20, or Jurkat over-expressing mPD1) were resuspended in FACS wash (PBS with 1% FBS) at 1×10⁶ cells/mL. The staining was performed in 1×10⁵ cells per well. The antibodies were diluted with a ratio of 1:5 from a starting concentration of 1.3×10⁻⁰⁷ M. The diluted antibodies were then added into the wells containing cells. Cells were stained for 30 min at 2-8° C. and washed twice with FACS wash buffer. APC-conjugated goat anti-human IgG (Jackson Immuno Research, 109-607-003, 1:400) or AF647-conjugated goat anti-mFc Fab (Jackson Immuno Research, 115-607-185, 1:400) was added to stain the cells for 30 min at 2-8° C. Following washing, cells were fixed in 2% paraformaldehyde for 30 min at 2-8° C. After two washes, stained cells were analyzed using BD LSRFortessa™ FACS instrument. The results were analyzed by FlowJo. FSC/SSC gates were used to select mononuclear cells.

Experiment [2] concerns the target T1, mouse PD1 (mPD1). The experiment is described as follows: cell-based or functional assay.

B1: 18B12-scFvFc (scFv, V domains shown)
VH: QVQLQQPGAELVRPGTSVKLSCKASGYTFTSYWMHWIKQRPGQGLEWIGVIDPSDNYTKYNQKFKGKATLTVDTSSSTAYMQLSSLTSEDSAVYFCAREGYYGSSPWFAYWGQGTLVTVSS
VL: QIVMSQSPAILSASPGEKVTMTCRARSSVSYIHWYQQKPGSSPKPWIYATSNLASGVPGRFSGSGSGTSYSLTITRVEAEDAATYYCQQWSSKPPTFGGGTKLEIK
For B1, the binding result with mouse PD1 (mPD1) [1] was “no binding”.

B2: 1B12IgG1EN (antibody)
heavy 1: QVQLQQPGAELVRPGTSVKLSCKASGYTFTSYWMHWIKQRPGQGLEWIGVIDPSDNYTKYNQKFKGKATLTVDTSSSTAYMQLSSLTSEDSAVYFCAREGYYGSSPWFAYWGQGTLVTVSSASTKGPSVFPLAPSSKSTSGGTAALGCLVKDYFPEPVTVSWNSGALTSGVHTFPAVLQSSGLYSLSSVVTVPSSSLGTQTYICNVNHKPSNTKVDKKVEPKSCDKTHTCPPCPAPEAEGAPSVFLFPPKPKDTLMISRTPEVTCVVVDVSHEDPEVKFNWYVDGVEVHNAKTKPREEQYNSTYRVVSVLTVLHQDWLNGKEYKCKVSNKALPSSIEKTISKAKGQPREPQVYTLPPCRDELTKNQVSLWCLVKGFYPSDIAVEWESNGQPENNYKTTPPVLDSDGSFFLYSKLTVDKSRWQQGNVFSCSVMHEALHNHYTQKSLSLSPGK
heavy 2: QVQLQQPGAELVRPGTSVKLSCKASGYTFTSYWMHWIKQRPGQGLEWIGVIDPSDNYTKYNQKFKGKATLTVDTSSSTAYMQLSSLTSEDSAVYFCAREGYYGSSPWFAYWGQGTLVTVSSASTKGPSVFPLAPSSKSTSGGTAALGCLVKDYFPEPVTVSWNSGALTSGVHTFPAVLQSSGLYSLSSVVTVPSSSLGTQTYICNVNHKPSNTKVDKKVEPKSCDKTHTCPPCPAPEAEGAPSVFLFPPKPKDTLMISRTPEVTCVVVDVSHEDPEVKFNWYVDGVEVHNAKTKPREEQYNSTYRVVSVLTVLHQDWLNGKEYKCKVSNKALPSSIEKTISKAKGQPREPQVCTLPPSRDELTKNQVSLSCAVKGFYPSDIAVEWESNGQPENNYKTTPPVLDSDGSFFLVSKLTVDKSRWQQGNVFSCSVMHEALHNRFTQKSLSLSPGK
light: QIVMSQSPAILSASPGEKVTMTCRARSSVSYIHWYQQKPGSSPKPWIYATSNLASGVPGRFSGSGSGTSYSLTITRVEAEDAATYYCQQWSSKPPTFGGGTKLEIKRTVAAPSVFIFPPSDEQLKSGTASVVCLLNNFYPREAKVQWKVDNALQSGNSQESVTEQDSKDSTYSLSSTLTLSKADYEKHKVYACEVTHQGLSSPVTKSFNRGEC
notes: IgG, mCD20 x mCD20, 145.3 kDa; also called Molecule ID M
In the case of B2, the binding result with mouse PD1 (mPD1) [1] is on record as “no binding”. The “Max % inhibition, luciferase bioassay, 1 nM CD3 bsAb” value with mouse PD1 (mPD1) [2] was 19%.
